Residue numbers refer to the chain shown, from its start. Blank lines part the entries; values can stand above or below the molecule they belong to.
What was measured:
[1] = molecular target: mutated rMal d 1 (2781) (apple) (UniProt Q40280); assay: Biacore SPR, BV16 on the chip, antigen injected at 5 concentrations
[2] = molecular target: rBet v 1.2801 (database accession number: Z80104) (birch); assay: as above
[3] = molecular target: receptor-bound IgE on basophils of birch pollen allergic patients; assay: cell-based or functional assay
[4] = molecular target: pooled IgE serum from birch allergic patients (FIG. 8A); assay: solid phase IgE inhibition assay (ADVIA Centaur), reference rBet v 1.2801
[5] = molecular target: pooled IgE serum from birch allergic patients (FIG. 8A); assay: solid phase IgE inhibition assay (ADVIA Centaur), inhibitor at 3000 ng/test, competitor biotinylated rBet v 1.2801

Molecule: monoclonal mouse IgG antibody BV16 raised against nBet v 1
Kd [1]: 270 pM | kon [1]: 120000 M⁻¹ s⁻¹ | Kd [2]: 240 pM | koff [2]: 2.5e-05 s⁻¹ | kon [2]: 100000 M⁻¹ s⁻¹

B1: mutated rMal d 1 (2781), Q40280 2-159 (protein)
chain: GVYTYENEYTSEIPPPRLFKAFVLDADNLIPKIAPQAIKHAENIEGNGGPGTIKKITFGEGSQYKYVKHRIDSVDHANYSYAYTLIEGDALTDTIEKVSYETKLVASGSGSIIKSISHYHTKGDVEIMEEHVKAGKEKAHGLFKLIESYLKDHPDAYN
shift of the histamine release curve toward higher antigen concentrations compared to rBet v 1.2801 [3]: 2 fold

B4: mutated rMal d 1 (2762) (protein)
chain: GVYTYENEYTSVIPPARLFKAFVLDADNLIPKIAPQAIKHAEILEGDGGPGTIKKITFGEGSQYGYVKHKIDSVDEANYSYAYTLIEGDALTDTIEKVSYETKLVATPDGGSIIKSISHYHTKGDVEIMEEHVKAGKEKAHGLFKLIESYLLDHSDAYN
fold higher antigen concentration than rBet v 1.2801 to reach the same IgE inhibition (62%) [4]: 500 fold | percent inhibition of binding of serum-IgE to biotinylated rBet v 1.2801 [5]: 62%

Results, then the molecule that gave them:

shift of the histamine release curve toward higher antigen concentrations compared to rBet v 1.2801 [3]: 20 fold
B2: mutated rMal d 1 (2762), Q40280 2-159 (protein)
chain: B4 chain

concentration required to trigger histamine release in patient (p) compared to rBet v 1.2801 [3]: 100 fold
B3: mutated rMal d 1 (2760), Q40280 2-159 (protein)
chain: B1 chain with N28T, K32Q, N43I, I44L, E45S, N47D, K65G, R70K, H76E

fold higher antigen concentration than rBet v 1.2801 to reach the same IgE inhibition (39%) [4]: 1000 fold | percent inhibition of binding of serum-IgE to biotinylated rBet v 1.2801 [5]: 39%
B5: mutated rMal d 1 (2781) (protein)
chain: B1 chain

— US20040171116A1
